In article PMC2185562:
Several values for one entry are separate records, joined by “and”; a condition that tells them apart may be missing. Equal entries are not always repeated.

Target: endogenous ezrin of LLC-PK1 cells (pig (endogenous in LLC-PK1)) (UniProt F1SB42)
Test: SEC

endogenous ezrin of LLC-PK1 cells (from UniProt F1SB42 1-551) (natural protein)
percent of the ezrin of the fraction that is oligomers: 15% and 28% | percent of the total cellular ezrin found as oligomers in this fraction: 12.3% and 2.6%
